Assay results taken from publication PMC3132758.

How the values were obtained:
[1] = biological target: CdvC from Metallosphaera sedula (Vps4-like AAA ATPase) (Metallosphaera sedula); experiment: SEC; CdvC alone at >75 µM (180 µM) on Superose 6; single high molecular weight peak
[2] = biological target: CdvB from Metallosphaera sedula (ESCRT-III-like), full length (Metallosphaera sedula); experiment: SEC; CdvB and CdvC mixed, 20 µM each, on Superose 6; fractions analysed by SDS-PAGE; void volume peak holds both

| Substance | stoichiometry N [1] | stoichiometry N [2] |
| --- | --- | --- |
| CdvC from Metallosphaera sedula (Vps4-like AAA ATPase) (enzyme) | 12 |  |
| CdvC from Metallosphaera sedula (Vps4-like AAA ATPase) |  | 1 |
